A protein production outcome set (Wang et al. 2014)

Assay: label from the status in PepcDB records

Row | Sequence | protein production
1 | MTRRRKILTGVLALVVLAAGGLAAARALGPGGTRVTAYFDRAIGVYAGSDLRILGVRVGEVESVDPEGTRVRVGLRLDDGIKVPEDARAVVVAPSVVADRYVQLTPAYRTGPALADGAVLPASRNHVPVEIDQIYDSITELGDALGPDGANADGALSELLRTGADNLDGNGEAIGDGVEQFGKAAKTLDGSSGDLFETLSSLQTFTTMLKNKDTDVRTAQERLDEVVSFFADNKDDLTGALEELGKALGQVKTFIEDNRGELKKNVDRLVPITRTLVEQRASLAEALDVAPLAADNVVNAYNPDTRTLDGRANLNEISSGGPLLPLPVAGTEKGEGRLEHHHHHH | not failed
2 | MTRRVIALAGGATFKDIVRTMETQLISALPVIDSGSHVIGVVSEADVLRKEEFRDSDQLRGPRSRPPGALVKARAVTAEDLMTAPAVTVHPKAPVARAARLMARRRVKRLPVVDDEGVLQGIVSRADLLRVFLRSDPDIAEEVRREIVGGRFPEGLGSVRVEVHEGVVTLTGRVPDTSLVPLAERLVRSVEGVVDVRCVLTGPRHRMTGESEKAGAAAHRPGP | failed
3 | MTRTMSFHKNCELCTTAGGEILWQDALCRVVHVENQDYPGFCRVILNRHVKEMSDLRPAERDHLMLVVFAVEEAVREVMRPDKINLASLGNMTPHVHWHVIPRFKRDRHFPNSVWGETKRESLPQALDQGSTTALKKAISVRLDQGEPVFMGM | not failed
4 | MTRTSKIAVIGGGMAGLAAAAGFDDAGFVVELYERQSYDSKRVNCGEAMTAVSKIPLEPTVENGFLNPLPAMEVEVYDGIDADRHRTGAGTFPAADTYITDRNVVEQSWAEQLSEKGVDIHENQSITRTDFHEFTDEYDLVVDATGQPSLSSKALGTTNEYSGYMVALNSDVEGDFTELYPNSRIILENYTGYSWAFPKTSQRANVGIGWTVSDRPSDYMKALREACKRNGWPVPSQERTNVAIIPEGPSLDPDRTYLPEHSVVRVGDAAGIANRLTGKGISQAVESGFLAAELANSGQLHNFPDSLYQRMKTEYIFATVVRYFLETRNPKVLGAAIRAAAGIDIEDVDRSPSTVLLRLLRHPVLFARIFSRRRVLNRVYGGMTNQWELIN | failed
5 | MTRVQANMLLLLAAAIWGGGFVAQSSAMSSIGPFWFVGLRFAIAAIAVLPFALMETRSLKSPPRRREIGSFILVGLALFGGATTQQVGLLTTTVTNSSFLTGLYVIFVPVIAVVLYRRHPHWVVWPCALMMLGGIFLLSGGAFETLTTGDILSIICAFFWAIQITLAGRFVSESGRPLALSFTQFAVCSLLSCMIGVVFEPISMAAIEASMMEILYVGLVSSGLAFVLQVIGQRYTTAPQAAIFLSSEALFGALMASIFLKETISSAGYVGCLIIFVAILIVELVPELTRKRQKTVAEAS | failed
6 | MTRYALLVRGINVGGKNKVVMAELRQELTNLGLEKVESYINSGNIFFTSIDSKAQLVEKLETFFAVHYPFIQSFSLLSLEDFEAELENLPAWWSRDLARKDFLFYTEGLDVDQVIATVESLELKDEVLYFGKLGIF | failed
7 | MTSAAMATAYFDKGNQCAARCDWLGAIEAFDHCLSLNPRDWQALANRGNAKVQREDLSGALEDYLAAAALNPSSCNIKSNLAVLLKELGELDLAAALLEEVLAAEPAHVDAWSNLGIVRQHQRRYQDAIACQQNALAIAGPSVARYSNLGNAYSCALMLDAAIEVQRKGLELAPDDANLQFNQSITLLTAGRYAEAWPLYEARWRSVLRPRLTQKRWQGEALGERTLLLWSEQGLGDSLQMVRLLSCLRRAHPQARLLLACPVSFHRLFAQFDGVSLLPADALPEHDCQLPLMSLPWLLGITLDNLPTEPYLRVPGGMVPPLPAASRRRVGVVWESGLWGVGVADLGRQHKSIPAGLFAEICRVPGIEFIALQPGGVPAELSDWVRACPISDFADTAALAAQMDLVICVDTAILHLAGAMGRPVWALLRAESAPFFLADAETAPWYPSVKLWRQPAPGAWEPMLKQIAEALAGRQTF | failed
8 | MTSASAPSFNPGKGPGSAVGIALLGFGTVGTEVMRLMTEYGDELAHRIGGPLEVRGIAVSDISKPREGVAPELLTEDAFALIEREDVDIVVEVIGGIEYPREVVLAALKAGKSVVTANKALVAAHSAELADAAEAANVDLYFEAAVAGAIPVVGPLRRSLAGDQIQSVMGIVNGTTNFILDAMDSTGADYADSLAEATRLGYAEADPTADVEGHDAASKAAILASIAFHTRVTADDVYCEGISNISAADIEAAQQAGHTIKLLAICEKFTNKEGKSAISARVHPTLLPVSHPLASVNKSFNAIFVEAEAAGRLMFYGNGAGGAPTASAVLGDVVGAARNKVHGGRAPGESTYANLPIADFGETTTRYHLDMDVEDRVGVLAELASLFSEQGISLRTIRQEERDDDARLIVVTHSALESDLSRTVELLKAKPVVKAINSVIRLERD | failed
9 | MTSETNIRTLVVDDSDFFAEMTADTLTQQHDIESVAANSAAEALERLEGGGFDCVVSDYEMPEMDGLELLEAIRETNPSIPFILLTGRGDEETASAAIAAGVADYLLKLEVVEDKQYGRLANRIENVVSQERTRKKFESLVSDSPDGIVHLTTNGTILSVNPSMAGRLGADPDTLVGQQLSAVMDSEAANQRLEAGKSAVENGTATRSEDAVGGRHYHNQYIPVDSHRKSDTFQLVSRDITERVERQRELERQNDRLEEFASVVSHDLRNPLNVAQGAVDLLGEPADSKEAELVAKIDRSLDRMGCIIEDVLTLARQGQTVSDPQETELSTLASTAWTWIEAEQASMSVASSTKLAADSGRAQDLLANLFRNAIEHNDGDVEIEIGLLESNDGFYIADNGEGVEGDAEDVFEMGYSSTKDGTGFGLAIVEQVAEAHGWEVSLTESDSGGARFEVSSVELHD | failed
10 | MTSFAQLDIKSEELAIVKTILQQLVPDYTVWAFGSRVKGKAKKYSDLDLAIISEEPLDFLARDRLKEAFSESDLPWRVDLLDWATTSEDFREIIRKVYVVIQEKEKTVEKPTAL | not failed
11 | MTSHTPKFHRLAIAELRRETQDAVSMSFTIPDEIAADYTFAPGQYLTLRTTLDGEELRRSYSICSGPDDRELRIAVKKVNGGAFSGWALEQLKSGDQIEVMTPSGRFGVAHAPGESRVHVGFAAGSGITPLISIIRGILAREPNSRFFLFYGNRTTSNILFRQALQDLKDRFMARLAVFHVLSQEEQDLPILHGRLDRDRVTLLLRAMLPAQAIDHVFICGPTAMSEEIAATCAELGVPADRVHVERFVAGSGGKPRPTPVIAPQAPPAAIAALIIDGKRKEVPVAAGEAILDAALRAGIDLPYACKGGMCSTCRAKVVEGETRMDVNYSLEPWELDAGFVLTCQAHPVSDRVVIDYDAV | failed
12 | MTSKHFISKKEAKRIWEAMARYGIDITGESLEVAAQKSASAYYIGGKPMVFQAGDLIPSVYLLNYRNPSRNIVTVDEGAEPHILNGSDLFAPGIVSMDDSIRKGDMIFVKSSKGYFIAVGMAEMDAGEVMATKRGKAARIIHFPGDELIRAFP | not failed
13 | MTSLNRPPFDFKTQYSLGFNAQDDEIVVDFFCGGGGAGTGLEMGLGRKVSVAKNHSAAAISMHTANHPGAKHFTTDVFDGDPDTECGGKAVGWFHMSPDCTHHSQAAGGQPRKREIRNLSWIGLKWAGKKKPRVVSLENVKQILQWGPLVAKRCKSTGRVVKLGGGIAAPGEVVPVDQQFLVPDPARRGQTWAVFVAELERLGYAVEWRVVRACDFGAPTSRERLFMIARCDGQSIVWPEPTHAKRPSKGQQPLKSAAECIDFSDLGKSIFERKKDLAQATLRRVAKGM | failed
14 | MTSNGQQGKPNLPEKDNLPRELGTQRINSPIARMGMFGAKTTGDTSGYGRLRVYRHVPAAAQRPYSDPSDPRTAYFDEVADALERSLKEIGTPYDTAISRVVVDRGEITFHVQREHLLDVATRLRDDPALRFELCLGVTGVHYPEDEGNELHAVYALRSITHNYEIRLEVSCPDSDPHIPSIVSVYPTNDWHEREAWDFFGIIFDGHPALTR | not failed
15 | MTSPSSAFPDGHGARLDAQSIRFERLLPGPIERVWAWLADADKRARWLAGGELPRQPGQTFELHFNHAALTAETAPARYAQYDRPIVARHTLLRCEPPRVLALTWGGGAGEAPSEVLFELSEAGEQVRLVLTHTRLADRAAMLDVAGGWHAHLAVLAGKLAGQAPPPFWTTLAQAEQDYEQRLLEHHHHHH | not failed
